Measured values: patent US20220332804A1 (CSL INNOVATION, published 2022)

T1: human complement C2 (human, UniProt P06681 21-752)
T1 construct: Recombinant full-length human C2 with C-terminal 8x His tag, purified from Expi293F supernatant; also called human C2; huC2
T1 sequence: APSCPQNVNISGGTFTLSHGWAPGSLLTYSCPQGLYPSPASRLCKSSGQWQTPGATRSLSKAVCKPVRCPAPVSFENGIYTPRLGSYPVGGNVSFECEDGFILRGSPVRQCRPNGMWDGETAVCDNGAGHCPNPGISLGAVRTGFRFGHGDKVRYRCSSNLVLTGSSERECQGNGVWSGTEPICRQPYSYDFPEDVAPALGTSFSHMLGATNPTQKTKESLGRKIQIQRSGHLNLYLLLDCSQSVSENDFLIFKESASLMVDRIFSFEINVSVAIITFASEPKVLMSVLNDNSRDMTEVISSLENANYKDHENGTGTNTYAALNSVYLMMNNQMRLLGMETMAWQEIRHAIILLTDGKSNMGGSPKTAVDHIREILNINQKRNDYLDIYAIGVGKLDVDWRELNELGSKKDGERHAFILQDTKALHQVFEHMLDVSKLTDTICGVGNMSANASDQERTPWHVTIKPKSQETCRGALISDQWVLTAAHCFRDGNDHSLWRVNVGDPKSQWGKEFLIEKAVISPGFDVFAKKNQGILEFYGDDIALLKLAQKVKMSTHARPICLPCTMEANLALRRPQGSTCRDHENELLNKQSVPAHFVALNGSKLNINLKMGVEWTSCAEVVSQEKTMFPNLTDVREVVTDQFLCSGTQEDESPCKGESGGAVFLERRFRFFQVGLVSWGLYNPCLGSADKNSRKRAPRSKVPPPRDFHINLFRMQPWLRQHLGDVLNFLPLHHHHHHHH

T2: human C2 L439A (human, UniProt P06681 21-752)
T2 sequence: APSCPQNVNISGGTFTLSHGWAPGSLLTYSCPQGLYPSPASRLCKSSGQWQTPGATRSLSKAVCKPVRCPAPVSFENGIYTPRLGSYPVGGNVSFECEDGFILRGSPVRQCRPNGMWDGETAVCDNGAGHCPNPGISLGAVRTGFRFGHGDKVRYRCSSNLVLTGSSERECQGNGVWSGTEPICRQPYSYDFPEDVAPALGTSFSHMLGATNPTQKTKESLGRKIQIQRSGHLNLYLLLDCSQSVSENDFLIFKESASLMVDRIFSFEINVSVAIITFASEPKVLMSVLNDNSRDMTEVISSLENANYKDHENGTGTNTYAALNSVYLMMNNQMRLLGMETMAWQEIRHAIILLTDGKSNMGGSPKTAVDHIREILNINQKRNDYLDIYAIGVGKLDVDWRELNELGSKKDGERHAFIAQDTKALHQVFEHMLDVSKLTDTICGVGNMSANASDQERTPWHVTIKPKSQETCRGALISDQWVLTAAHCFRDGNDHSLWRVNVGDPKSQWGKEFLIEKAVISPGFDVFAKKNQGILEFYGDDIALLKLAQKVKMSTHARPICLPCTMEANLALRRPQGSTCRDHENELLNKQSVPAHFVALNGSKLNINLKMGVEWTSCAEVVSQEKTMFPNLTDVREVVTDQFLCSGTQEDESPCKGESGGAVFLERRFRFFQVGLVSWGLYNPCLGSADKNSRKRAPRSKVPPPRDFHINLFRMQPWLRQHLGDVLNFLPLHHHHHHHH

T3: human C2 P650A (human, UniProt P06681 21-752)
T3 sequence: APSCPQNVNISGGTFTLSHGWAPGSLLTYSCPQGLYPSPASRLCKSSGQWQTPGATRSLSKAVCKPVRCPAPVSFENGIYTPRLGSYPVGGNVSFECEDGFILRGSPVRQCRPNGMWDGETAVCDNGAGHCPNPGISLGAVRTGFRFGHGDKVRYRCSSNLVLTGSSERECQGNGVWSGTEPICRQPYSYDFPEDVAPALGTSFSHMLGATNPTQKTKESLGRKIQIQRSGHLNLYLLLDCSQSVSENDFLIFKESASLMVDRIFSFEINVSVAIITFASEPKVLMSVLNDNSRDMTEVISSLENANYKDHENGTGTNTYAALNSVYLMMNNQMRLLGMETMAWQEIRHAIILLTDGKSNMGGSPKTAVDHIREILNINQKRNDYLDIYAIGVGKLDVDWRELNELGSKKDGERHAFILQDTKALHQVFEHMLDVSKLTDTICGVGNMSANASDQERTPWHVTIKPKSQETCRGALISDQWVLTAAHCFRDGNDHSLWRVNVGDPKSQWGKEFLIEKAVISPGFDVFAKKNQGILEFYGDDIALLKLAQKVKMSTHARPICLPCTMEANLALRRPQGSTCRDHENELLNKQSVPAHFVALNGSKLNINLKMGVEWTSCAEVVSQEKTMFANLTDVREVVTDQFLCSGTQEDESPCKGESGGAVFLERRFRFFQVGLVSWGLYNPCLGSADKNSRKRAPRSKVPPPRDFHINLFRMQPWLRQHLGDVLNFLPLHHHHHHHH

T4: human C2 K550A (human, UniProt P06681 21-752)
T4 sequence: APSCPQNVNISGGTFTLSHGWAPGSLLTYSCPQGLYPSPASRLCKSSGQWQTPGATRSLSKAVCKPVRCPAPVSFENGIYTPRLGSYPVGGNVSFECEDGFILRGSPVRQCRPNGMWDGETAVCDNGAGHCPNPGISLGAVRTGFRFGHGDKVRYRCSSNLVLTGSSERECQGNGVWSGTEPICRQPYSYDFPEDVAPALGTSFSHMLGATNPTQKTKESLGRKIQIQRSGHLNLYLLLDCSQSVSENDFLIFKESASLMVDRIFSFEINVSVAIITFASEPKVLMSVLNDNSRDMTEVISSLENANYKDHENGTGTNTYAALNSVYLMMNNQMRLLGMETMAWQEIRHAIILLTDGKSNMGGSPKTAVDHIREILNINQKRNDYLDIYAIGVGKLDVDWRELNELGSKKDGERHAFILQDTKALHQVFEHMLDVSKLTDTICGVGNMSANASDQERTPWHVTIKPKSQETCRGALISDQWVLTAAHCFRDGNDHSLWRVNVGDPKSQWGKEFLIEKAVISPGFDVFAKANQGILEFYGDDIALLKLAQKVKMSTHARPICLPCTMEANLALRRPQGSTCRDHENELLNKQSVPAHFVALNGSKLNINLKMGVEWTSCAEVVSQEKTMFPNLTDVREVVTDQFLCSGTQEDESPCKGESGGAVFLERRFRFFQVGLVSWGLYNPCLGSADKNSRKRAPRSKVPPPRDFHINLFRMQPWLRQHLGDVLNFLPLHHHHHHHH

B1: RF16-226 (antibody)
heavy: not shown
light: SYELTQPPSVSVSPGQTARITCSGDALTSKYVAWYQQKSGLAPLLVIYEDTRRPSGIPAKFSGSSSGSVATLTISGAHGDDEADYYCYSTDASGHQRVFGGGTKLTVLSQPKAAPSVTLFPPSSEELQANKATLVCLISDFYPGAVTVAWKADGSPVKAGVETTKPSKQSNNKYAASSYLSLTPEQWKSHRSYSCQVTHEGSTVEKTVAPTECS
B2: RF16-226 (antibody, human IgG4 S228P, lambda)
heavy: not shown
light: SYELTQPPSVSVSPGQTARITCSGDALTSKYVAWYQQKSGLAPLLVIYEDTRRPSGIPAKFSGSSSGSVATLTISGAHGDDEADYYCYSTDASGHQRVFGGGTKLTVLSQPKAAPSVTLFPPSSEELQANKATLVCLISDFYPGAVTVAWKADGSPVKAGVETTKPSKQSNNKYAASSYLSLTPEQWKSHRSYSCQVTHEGSTVEKTVAPTECS
notes: pH-dependent anti-C2 antibody from a phage display library; also called WT

Columns and labels:
[1] = target: T1, human complement C2; assay: SPR, mAb captured, huC2 analyte, neutral pH; pH 7
[2] = target: T2, human C2 L439A; assay: SPR, KD relative to WT C2;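 also: biacore SPR at 37 °C, anti-C2 mAbs captured via immobilised goat anti-human IgG, C2 alanine or serine surface mutants as analytes, 1:1 model fitted, double-referenced sensograms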
[3] = target: T3, human C2 P650A; assay: SPR, KD relative to WT C2;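 also: biacore SPR at 37 °C, anti-C2 mAbs captured via immobilised goat anti-human IgG, C2 alanine or serine surface mutants as analytes, 1:1 model fitted, double-referenced sensograms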
[4] = target: T4, human C2 K550A; assay: SPR, KD relative to WT C2;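 also: biacore SPR at 37 °C, anti-C2 mAbs captured via immobilised goat anti-human IgG, C2 alanine or serine surface mutants as analytes, 1:1 model fitted, double-referenced sensograms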

| Binder | Kd [1] [nM] | Fold diff [2] [fold] | Fold diff [3] [fold] | Fold diff [4] [fold] |
| --- | --- | --- | --- | --- |
| B1 | ~9 |  |  |  |
| B2 |  | 12 | 2 | 1 |
